Drawing on publication PMC3393671, this text covers percent of parent (% of wild-type intensity) for 13 molecules.

The target of this assay is ROP5 of T. gondii strain RH-YFP (isoforms not told apart), F2YGR7. Nature of the assay: pull-down (quantitated Western blot). The conditions noted are these: chain shown with the change; 25 µg protein/100 µl 1:1 bead suspension; RH-YFP strain T. gondii lysates; 3E2 antibody (anti-ROP5); GST signal subtracted; parent: est. 100; read off a plot. On the technique in general: In western blotting, separated proteins are transferred to a membrane and probed.
ROP5 of T. gondii strain RH-YFP (isoforms not told apart), F2YGR7, sequence (F2YGR7 25-549): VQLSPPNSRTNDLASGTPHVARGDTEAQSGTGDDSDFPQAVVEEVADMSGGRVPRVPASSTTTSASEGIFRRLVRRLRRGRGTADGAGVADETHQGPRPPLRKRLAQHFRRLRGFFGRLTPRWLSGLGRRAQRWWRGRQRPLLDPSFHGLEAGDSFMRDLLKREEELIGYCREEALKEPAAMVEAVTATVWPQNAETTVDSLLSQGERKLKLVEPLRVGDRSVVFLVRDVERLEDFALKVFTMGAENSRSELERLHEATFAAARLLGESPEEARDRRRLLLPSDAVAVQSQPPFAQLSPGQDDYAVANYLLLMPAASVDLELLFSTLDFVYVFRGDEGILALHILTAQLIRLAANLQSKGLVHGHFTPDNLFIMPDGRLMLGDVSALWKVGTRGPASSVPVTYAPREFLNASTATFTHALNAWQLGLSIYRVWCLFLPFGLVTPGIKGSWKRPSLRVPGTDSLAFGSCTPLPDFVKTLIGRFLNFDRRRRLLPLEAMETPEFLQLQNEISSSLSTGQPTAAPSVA

B1: GST-Irga6, Q9QZ85 E110R; R111E (protein)
chain: MGQLFSSPKSDENNDLPSSFTGYFKKFNTGRKIISQEILNLIELRMRKGNIQLTNSAISDALKEIDSSVLNVAVTGETGSGKSSFINTLRGIGNEEEGAAKTGVVEVTMREHPYKHPNIPNVVFWDLPGIGSTNFPPNTYLEKMKFYEYDFFIIISATRFKKNDIDIAKAISMMKKEFYFVRTKVDSDITNEADGKPQTFDKEKVLQDIRLNCVNTFRENGIAEPPIFLLSNKNVCHYDFPVLMDKLISDLPIYKRHNFMVSLPNITDSVIEKKRQFLKQRIWLEGFAADLVNIIPSLTFLLDSDLETLKKSMKFYRTVFGVDETSLQRLARDWEIEVDQVEAMIKSPAVFKPTDEETIQERLSRYIQEFCLANGYLLPKNSFLKEIFYLKYYFLDMVTEDAKTLLKEICL
With B1, the percent of parent (% of wild-type intensity) came to 17.

B2: GST-Irga6, Q9QZ85 R159E (protein)
chain: MGQLFSSPKSDENNDLPSSFTGYFKKFNTGRKIISQEILNLIELRMRKGNIQLTNSAISDALKEIDSSVLNVAVTGETGSGKSSFINTLRGIGNEEEGAAKTGVVEVTMERHPYKHPNIPNVVFWDLPGIGSTNFPPNTYLEKMKFYEYDFFIIISATEFKKNDIDIAKAISMMKKEFYFVRTKVDSDITNEADGKPQTFDKEKVLQDIRLNCVNTFRENGIAEPPIFLLSNKNVCHYDFPVLMDKLISDLPIYKRHNFMVSLPNITDSVIEKKRQFLKQRIWLEGFAADLVNIIPSLTFLLDSDLETLKKSMKFYRTVFGVDETSLQRLARDWEIEVDQVEAMIKSPAVFKPTDEETIQERLSRYIQEFCLANGYLLPKNSFLKEIFYLKYYFLDMVTEDAKTLLKEICL
B2: the percent of parent (% of wild-type intensity) worked out at 5.5.

B3: GST-Irga6, Q9QZ85 S132R (protein)
chain: MGQLFSSPKSDENNDLPSSFTGYFKKFNTGRKIISQEILNLIELRMRKGNIQLTNSAISDALKEIDSSVLNVAVTGETGSGKSSFINTLRGIGNEEEGAAKTGVVEVTMERHPYKHPNIPNVVFWDLPGIGRTNFPPNTYLEKMKFYEYDFFIIISATRFKKNDIDIAKAISMMKKEFYFVRTKVDSDITNEADGKPQTFDKEKVLQDIRLNCVNTFRENGIAEPPIFLLSNKNVCHYDFPVLMDKLISDLPIYKRHNFMVSLPNITDSVIEKKRQFLKQRIWLEGFAADLVNIIPSLTFLLDSDLETLKKSMKFYRTVFGVDETSLQRLARDWEIEVDQVEAMIKSPAVFKPTDEETIQERLSRYIQEFCLANGYLLPKNSFLKEIFYLKYYFLDMVTEDAKTLLKEICL
For the molecule B3, the percent of parent (% of wild-type intensity) was determined as 45.

B4: GST-Irga6, Q9QZ85 E77A (protein)
chain: MGQLFSSPKSDENNDLPSSFTGYFKKFNTGRKIISQEILNLIELRMRKGNIQLTNSAISDALKEIDSSVLNVAVTGATGSGKSSFINTLRGIGNEEEGAAKTGVVEVTMERHPYKHPNIPNVVFWDLPGIGSTNFPPNTYLEKMKFYEYDFFIIISATRFKKNDIDIAKAISMMKKEFYFVRTKVDSDITNEADGKPQTFDKEKVLQDIRLNCVNTFRENGIAEPPIFLLSNKNVCHYDFPVLMDKLISDLPIYKRHNFMVSLPNITDSVIEKKRQFLKQRIWLEGFAADLVNIIPSLTFLLDSDLETLKKSMKFYRTVFGVDETSLQRLARDWEIEVDQVEAMIKSPAVFKPTDEETIQERLSRYIQEFCLANGYLLPKNSFLKEIFYLKYYFLDMVTEDAKTLLKEICL
On to B4, for which the percent of parent (% of wild-type intensity) stood at 34.

B5: GST-Irga6, Q9QZ85 M173W (protein)
chain: MGQLFSSPKSDENNDLPSSFTGYFKKFNTGRKIISQEILNLIELRMRKGNIQLTNSAISDALKEIDSSVLNVAVTGETGSGKSSFINTLRGIGNEEEGAAKTGVVEVTMERHPYKHPNIPNVVFWDLPGIGSTNFPPNTYLEKMKFYEYDFFIIISATRFKKNDIDIAKAISWMKKEFYFVRTKVDSDITNEADGKPQTFDKEKVLQDIRLNCVNTFRENGIAEPPIFLLSNKNVCHYDFPVLMDKLISDLPIYKRHNFMVSLPNITDSVIEKKRQFLKQRIWLEGFAADLVNIIPSLTFLLDSDLETLKKSMKFYRTVFGVDETSLQRLARDWEIEVDQVEAMIKSPAVFKPTDEETIQERLSRYIQEFCLANGYLLPKNSFLKEIFYLKYYFLDMVTEDAKTLLKEICL
As to B5, the percent of parent (% of wild-type intensity) worked out at 25.

B6: GST-Irga6, Q9QZ85 I209R (protein)
chain: MGQLFSSPKSDENNDLPSSFTGYFKKFNTGRKIISQEILNLIELRMRKGNIQLTNSAISDALKEIDSSVLNVAVTGETGSGKSSFINTLRGIGNEEEGAAKTGVVEVTMERHPYKHPNIPNVVFWDLPGIGSTNFPPNTYLEKMKFYEYDFFIIISATRFKKNDIDIAKAISMMKKEFYFVRTKVDSDITNEADGKPQTFDKEKVLQDRRLNCVNTFRENGIAEPPIFLLSNKNVCHYDFPVLMDKLISDLPIYKRHNFMVSLPNITDSVIEKKRQFLKQRIWLEGFAADLVNIIPSLTFLLDSDLETLKKSMKFYRTVFGVDETSLQRLARDWEIEVDQVEAMIKSPAVFKPTDEETIQERLSRYIQEFCLANGYLLPKNSFLKEIFYLKYYFLDMVTEDAKTLLKEICL
B6: the percent of parent (% of wild-type intensity) stood at 5.

B7: GST-Irga6, Q9QZ85 K145E (protein)
chain: MGQLFSSPKSDENNDLPSSFTGYFKKFNTGRKIISQEILNLIELRMRKGNIQLTNSAISDALKEIDSSVLNVAVTGETGSGKSSFINTLRGIGNEEEGAAKTGVVEVTMERHPYKHPNIPNVVFWDLPGIGSTNFPPNTYLEKMEFYEYDFFIIISATRFKKNDIDIAKAISMMKKEFYFVRTKVDSDITNEADGKPQTFDKEKVLQDIRLNCVNTFRENGIAEPPIFLLSNKNVCHYDFPVLMDKLISDLPIYKRHNFMVSLPNITDSVIEKKRQFLKQRIWLEGFAADLVNIIPSLTFLLDSDLETLKKSMKFYRTVFGVDETSLQRLARDWEIEVDQVEAMIKSPAVFKPTDEETIQERLSRYIQEFCLANGYLLPKNSFLKEIFYLKYYFLDMVTEDAKTLLKEICL
Take B7: the percent of parent (% of wild-type intensity) turned out to be 100.

B8: GST-Irga6, Q9QZ85 T88R (protein)
chain: MGQLFSSPKSDENNDLPSSFTGYFKKFNTGRKIISQEILNLIELRMRKGNIQLTNSAISDALKEIDSSVLNVAVTGETGSGKSSFINRLRGIGNEEEGAAKTGVVEVTMERHPYKHPNIPNVVFWDLPGIGSTNFPPNTYLEKMKFYEYDFFIIISATRFKKNDIDIAKAISMMKKEFYFVRTKVDSDITNEADGKPQTFDKEKVLQDIRLNCVNTFRENGIAEPPIFLLSNKNVCHYDFPVLMDKLISDLPIYKRHNFMVSLPNITDSVIEKKRQFLKQRIWLEGFAADLVNIIPSLTFLLDSDLETLKKSMKFYRTVFGVDETSLQRLARDWEIEVDQVEAMIKSPAVFKPTDEETIQERLSRYIQEFCLANGYLLPKNSFLKEIFYLKYYFLDMVTEDAKTLLKEICL
Consider B8, for which the percent of parent (% of wild-type intensity) is 51.

B9: GST-Irga6, Q9QZ85 E106R (protein)
chain: MGQLFSSPKSDENNDLPSSFTGYFKKFNTGRKIISQEILNLIELRMRKGNIQLTNSAISDALKEIDSSVLNVAVTGETGSGKSSFINTLRGIGNEEEGAAKTGVVRVTMERHPYKHPNIPNVVFWDLPGIGSTNFPPNTYLEKMKFYEYDFFIIISATRFKKNDIDIAKAISMMKKEFYFVRTKVDSDITNEADGKPQTFDKEKVLQDIRLNCVNTFRENGIAEPPIFLLSNKNVCHYDFPVLMDKLISDLPIYKRHNFMVSLPNITDSVIEKKRQFLKQRIWLEGFAADLVNIIPSLTFLLDSDLETLKKSMKFYRTVFGVDETSLQRLARDWEIEVDQVEAMIKSPAVFKPTDEETIQERLSRYIQEFCLANGYLLPKNSFLKEIFYLKYYFLDMVTEDAKTLLKEICL
For the molecule B9, the percent of parent (% of wild-type intensity) is 110.

B10: GST-Irga6, Q9QZ85 K162E (protein)
chain: MGQLFSSPKSDENNDLPSSFTGYFKKFNTGRKIISQEILNLIELRMRKGNIQLTNSAISDALKEIDSSVLNVAVTGETGSGKSSFINTLRGIGNEEEGAAKTGVVEVTMERHPYKHPNIPNVVFWDLPGIGSTNFPPNTYLEKMKFYEYDFFIIISATRFKENDIDIAKAISMMKKEFYFVRTKVDSDITNEADGKPQTFDKEKVLQDIRLNCVNTFRENGIAEPPIFLLSNKNVCHYDFPVLMDKLISDLPIYKRHNFMVSLPNITDSVIEKKRQFLKQRIWLEGFAADLVNIIPSLTFLLDSDLETLKKSMKFYRTVFGVDETSLQRLARDWEIEVDQVEAMIKSPAVFKPTDEETIQERLSRYIQEFCLANGYLLPKNSFLKEIFYLKYYFLDMVTEDAKTLLKEICL
For the molecule B10, the percent of parent (% of wild-type intensity) was 3.5.

B11: GST-Irga6, Q9QZ85 N212R (protein)
chain: MGQLFSSPKSDENNDLPSSFTGYFKKFNTGRKIISQEILNLIELRMRKGNIQLTNSAISDALKEIDSSVLNVAVTGETGSGKSSFINTLRGIGNEEEGAAKTGVVEVTMERHPYKHPNIPNVVFWDLPGIGSTNFPPNTYLEKMKFYEYDFFIIISATRFKKNDIDIAKAISMMKKEFYFVRTKVDSDITNEADGKPQTFDKEKVLQDIRLRCVNTFRENGIAEPPIFLLSNKNVCHYDFPVLMDKLISDLPIYKRHNFMVSLPNITDSVIEKKRQFLKQRIWLEGFAADLVNIIPSLTFLLDSDLETLKKSMKFYRTVFGVDETSLQRLARDWEIEVDQVEAMIKSPAVFKPTDEETIQERLSRYIQEFCLANGYLLPKNSFLKEIFYLKYYFLDMVTEDAKTLLKEICL
With B11, the percent of parent (% of wild-type intensity) was determined as 2.7.

B12: GST-Irga6, Q9QZ85 P197H (protein)
chain: MGQLFSSPKSDENNDLPSSFTGYFKKFNTGRKIISQEILNLIELRMRKGNIQLTNSAISDALKEIDSSVLNVAVTGETGSGKSSFINTLRGIGNEEEGAAKTGVVEVTMERHPYKHPNIPNVVFWDLPGIGSTNFPPNTYLEKMKFYEYDFFIIISATRFKKNDIDIAKAISMMKKEFYFVRTKVDSDITNEADGKHQTFDKEKVLQDIRLNCVNTFRENGIAEPPIFLLSNKNVCHYDFPVLMDKLISDLPIYKRHNFMVSLPNITDSVIEKKRQFLKQRIWLEGFAADLVNIIPSLTFLLDSDLETLKKSMKFYRTVFGVDETSLQRLARDWEIEVDQVEAMIKSPAVFKPTDEETIQERLSRYIQEFCLANGYLLPKNSFLKEIFYLKYYFLDMVTEDAKTLLKEICL
As to B12, the percent of parent (% of wild-type intensity) came to 2.8.

B13: GST-Irga6, Q9QZ85 K161E (protein)
chain: MGQLFSSPKSDENNDLPSSFTGYFKKFNTGRKIISQEILNLIELRMRKGNIQLTNSAISDALKEIDSSVLNVAVTGETGSGKSSFINTLRGIGNEEEGAAKTGVVEVTMERHPYKHPNIPNVVFWDLPGIGSTNFPPNTYLEKMKFYEYDFFIIISATRFEKNDIDIAKAISMMKKEFYFVRTKVDSDITNEADGKPQTFDKEKVLQDIRLNCVNTFRENGIAEPPIFLLSNKNVCHYDFPVLMDKLISDLPIYKRHNFMVSLPNITDSVIEKKRQFLKQRIWLEGFAADLVNIIPSLTFLLDSDLETLKKSMKFYRTVFGVDETSLQRLARDWEIEVDQVEAMIKSPAVFKPTDEETIQERLSRYIQEFCLANGYLLPKNSFLKEIFYLKYYFLDMVTEDAKTLLKEICL
On to B13, for which the percent of parent (% of wild-type intensity) was 1.
